Holding throughout (assay): membrane filtration equilibrium binding (Scatchard plot); 12.5 µM wild-type or mutant small heat shock protein incubated 1 hr at 60°C with 2–18 µM γ-crystallin in 50 mM phosphate buffer, 100 mM NaCl, pH 7.2; unbound substrate separated through a 100-kDa cut off Microcon filter; n per subunit of chaperone
Assay [1] addresses Hsp27 R12A mutant (human) (UniProt P04792).
The target of assay [2] is wild-type human Hsp27 (human) (UniProt P04792).
For assay [3], the target named is wild-type human αA-crystallin (human) (UniProt P02489).
Sequence of wild-type human αA-crystallin (human) (P02489 whole entry): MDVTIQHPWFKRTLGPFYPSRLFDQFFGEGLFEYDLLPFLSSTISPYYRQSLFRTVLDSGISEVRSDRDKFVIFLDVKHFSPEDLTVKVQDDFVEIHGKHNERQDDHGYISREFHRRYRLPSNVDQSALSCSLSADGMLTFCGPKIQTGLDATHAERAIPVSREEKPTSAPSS
In assay [4] the target is wild-type human αB-crystallin (human) (UniProt P02511).
Sequence of wild-type human αB-crystallin (human) (P02511 whole entry): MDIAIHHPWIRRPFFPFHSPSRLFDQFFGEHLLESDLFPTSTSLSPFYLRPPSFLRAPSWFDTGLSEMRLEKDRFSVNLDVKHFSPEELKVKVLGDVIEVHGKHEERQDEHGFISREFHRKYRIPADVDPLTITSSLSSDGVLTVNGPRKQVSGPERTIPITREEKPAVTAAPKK
The target of assay [5] is αB-crystallin R12A mutant (human) (UniProt P02511).
Sequence of αB-crystallin R12A mutant (human) (P02511 whole entry R12A): as the sequence (P02511 whole entry) above, with R12A counted along it

Usually Kd stands for the constant that tells how readily two partners part at equilibrium. Low readings indicate higher affinity, high ones lower affinity. For orientation: stoichiometry N means a count of units in the complex or per binding partner.

Sequence of bovine γ-crystallin (P02526 whole entry): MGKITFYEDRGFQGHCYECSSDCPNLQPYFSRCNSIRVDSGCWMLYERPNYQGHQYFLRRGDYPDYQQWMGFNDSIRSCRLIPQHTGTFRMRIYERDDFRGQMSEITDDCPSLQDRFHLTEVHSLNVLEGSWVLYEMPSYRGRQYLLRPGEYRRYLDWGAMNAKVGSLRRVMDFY
Sequence of wild-type human Hsp27 (human) (P04792 whole entry): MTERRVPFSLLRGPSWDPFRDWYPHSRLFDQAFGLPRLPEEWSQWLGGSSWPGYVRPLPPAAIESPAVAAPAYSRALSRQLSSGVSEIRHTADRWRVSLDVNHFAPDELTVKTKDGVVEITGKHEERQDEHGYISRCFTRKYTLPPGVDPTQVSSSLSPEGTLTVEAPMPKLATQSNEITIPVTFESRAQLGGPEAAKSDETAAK
Sequence of Hsp27 R12A mutant (human) (P04792 whole entry R12A): as the sequence (P04792 whole entry) above, with R12A counted along it

Turning to “bovine γ-crystallin (from UniProt P02526 1-175) (natural protein)”, the Kd in assay [1] worked out at 5.79 µM; in assay [2], 5.91 µM; in assay [4], 2.84 µM; in assay [5], 3.24 µM. Moreover, the stoichiometry N in assay [1] amounted to 2.87; in assay [2] it was 2.9; in assay [3], 3.61; in assay [4], 2.34; in assay [5], 1.68.

Values taken from publication PMC3260246.
